Source: patent US20110065645A1, “Compositions and Methods for Modulating Neuron Degeneration and Neuron Guidance” (The Regents of the University of California, priority 2009, published 2011)

System: β-catenin
Assay: β-catenin immunostaining in commissural axon growth cones
Assay type: cell-based
Settings: bath application; LiCl 2 mM
From the text: To understand how atypical PKC/Par pathway regulates axon guidance, we set out to determine the subcellular localization of aPKC, their substrates and downstream cellular effectors. […] Thus, our high-resolution confocal imaging detects a tendency of β-catenin being concentrated to one side of the growth cone (FIG. 9A). It is possible that there is low level of Wnt proteins in the culture (many neurons express Wnts). […] Therefore, it is also possible that intrinsic aPKC signaling can create chirality within the growth cone with out extrinsic signals. Such intrinsic polarity may then robustly regulate cellular morphology upon directional instructions from the environment such as a Wnt gradient. It is well known that GSK3β phosphorylates β-catenin, which then leads to proteosome-mediated degradation of β-catenin. And it is also known that GSK3β is phosphorylated and inhibited by PKCζ^(1,2). Therefore, inhibiting GSK3β or the proteosome activity generally should increase β-catenin level throughout the growth cone, canceling the asymmetry. […] We are now testing the hypothesis that Wnt proteins may locally activate PKCζ, which then inhibits GSK3β and locally stabilizes β-catenin, which is part of the asymmetric cellular mechanism leading to directional choice of a growth cone. We examine the localization of β-catenin in post-crossing commissural axon growth cones in the “post-crossing” assay and “open-book” assays.

B1: Wnt5a: recombinant Wnt5a protein (R&D Systems) (protein, UniProt P41221 62-380, looked up)
Protein Wnt-5a: IIGAQPLCSQLAGLSQGQKKLCHLYQDHMQYIGEGAKTGIKECQYQFRHRRWNCSTVDNTSVFGRVMQIGSRETAFTYAVSAAGVVNAMSRACREGELSTCGCSRAARPKDLPRDWLWGGCGDNIDYGYRFAKEFVDARERERIHAKGSYESARILMNLHNNEAGRRTVYNLADVACKCHGVSGSCSLKTCWLQLADFRKVGDALKEKYDSAAAMRLNSRGKLVQVNSRFNSPTTQDLVYIDPSPDYCVRNESTGSLGTQGRLCNKTSEGMDGCELMCCGRGYDQFKTVQTERCHCKFHWCCYVKCKKCTEIVDQFVCK
β-catenin level and asymmetry in the growth cone: increased the levels of β-catenin throughout the growth cone
